Assay: yeast display, Sf9 membrane polyspecificity reagent, FACS + sequencing; frameworks hold sequencing errors
Procedure, shortened: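 Using colony PCR, genes from sorted yeast display clones were amplified, then sequenced on MiSeq at 2 × 250 and filtered by CDR length. The clones had been stained with 10% biotinylated, detergent-solubilized Sf9 membrane reagent for 1 hour at 4 °C and sorted by FACS into low and high (top ~1%) gates on anti-HA and streptavidin fluorescence. Polyreactivity labels come from the gate of origin.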

Row | Sequence | polyreactivity (PSR sort gate)
1 | QVQLVESGGGLVQAGGSLRLSCAASGRIIGKNVMGWSRQAPGKDRELVAAISNSGGSTYYADSVKGRFTISRDNAKNTVYLQMNSLKPEDTAVYYCAVDTSYYDYWGQGTQVTVSS | high polyreactivity
2 | QVQLVESGGGLVQAGGSLRLSCAASGTMGWYRQAPGKERELVAANSSSDRTSYADSVKGRFTISRDNAKNTVYLQMNSLKPEDTAVYYCNASTVFAWRTSTLKLFYTAHDYWGQGTQVTVSS | low polyreactivity
3 | QVQIVESGGGLVQAGGSLRLSCAASGRTLDVYAMGWDRQAPGKERELVARITSGGSTNYADSVKGRFTISRDNAKNTVYLQMNSLKPEDTAVYYCNAVVYPRPYTRPRYRYDYWGQGTQVTVSS | high polyreactivity
4 | QVHLVESGGGLVQAGGSLRLSCAASGRTFIGNAMGWYRQATGKERELVAGITWSGGRSYYADSVKGRFTISRDNAKNTVYLQMNSQKPEDTAVYYCGRAGQSSRMNYWGQGTQVTVSS | high polyreactivity
5 | QVQLVESGGGLVQAGGSLRLSCAASGRTFRYNAMGWYRQAPGKERELVASIRYSSASTYYADSVKGRFTISRDNAKNTVYLQMNSLKPEDTAVYYCAASWYPVIVGYDYWGQGTQVTVSS | high polyreactivity
6 | QVQLVESGGGLVQAGGSLRLSCAASGGTFQRYVMGWYIQAPGKERELVAAISRSGSTYADSVKGRFTISRDNAKNTVYLQMNSLKPEDTAFYYCNVVRYYRYYLHGYDYWGQGTQVTVSS | high polyreactivity
7 | QVQRVESGGGLVQAGGRLRLSCAASGLIFAHDARGWYRQAPGKERELVAGINRSGGSTYYADSVKGRFTISRDNAKNTVYLQTNSLKPEDTAVYYCAARRAYPRPGYDYWGQGTQVTVSS | high polyreactivity
8 | QVQLVESGGGLVQAGGILLLSCAASGFIFWYYTMGWYKQAPGKERELVAAINSGGSTNYPDSVKGRFTSSRDNAKNTVYLQMNSLKPEDTAVYYCAALVWYSGELFYYWGQGTQVTVSS | low polyreactivity
9 | QVQLVESGGGLFQAGGSLRLSCAASGIIFYVNAMAWSRQAPGKERERVAVISRRGGSTNDADSVKGRFTISRDNAKNTVYLQMKSLKPEDTAVYYCDAGYRTAYRGSSYYYWGKGTQVTVSS | high polyreactivity
10 | QVQLVESGGGLVQSGGSLRLSCAASGFIFPVYTLGWYRHAPGKERELDAAITQIGGSTHYADSVKGRFTISRDNAKNTVYLQMNSLKPEDTAVFYCKAVPSYGTEYDYWGQGTQVTVSS | low polyreactivity
11 | QVQLVESGGGLVQAGGSLRISCAASGSIFDYYVMGWYRQATGKERELVAAISWSGASTYYADSVKGRCTISRDNAKNTVYLQMNSLKREDTAVYYCAAYYGVNNLIDYDYWGQGTQVTVSS | low polyreactivity
12 | QVQLEESGGGLVQAGGSLRLSCAASGSTFPYYAMGWYRQAPGKERELVAVITSSGSRTYYADSVKGRFTISRDNAKNTVYLQMNSLKPEDTAVYYCARDTRYYRPNRSQYDYWGQGTQVTVSS | high polyreactivity
13 | QVQLVESGGGLVQAGGSLRLSCAASGSIFLANAMGWYRQAPGKERELVAGISSSVTTNYADSVKGRFTISRDNAKNTVYLQMNSLKPEDTAVYYSNAVYGVYDFNYWVQGTQVTVSS | low polyreactivity
14 | QVQLVESGEGLVQAGGSLRLSCAASGITFFRNTMGWYRHAPGKERELVAAISKSGDNTYYADSVKVRFTISRDNAKNTVYLQMNSLKPEDTAVYYCNKAYRKFYYGYDYWGQGTQVTVSS | high polyreactivity
15 | QVQLVESGGGLVQAGGSLRLSCAASGSTFYSYAMGWYSQAPGKERELVARIRWSGYTYSADSVKGRFTISRDNAKNTVYLQMNSLKPEDTAVSYCAAKRGFHIADYWGQGTQVTVSS | high polyreactivity
16 | QVQLVESSGGLVQAGGSLRLRCAASGMISEYNAMGWSRQAPGKERELVAAITWNGGSTFYADSVKGRFTISRDNAKNTVYLQMNSLKPEDTAVYYCNKTRLEPEYGYWGQGTQVTVSS | low polyreactivity
17 | QVQLVESGGGLVQAGGSLRLSCAASGSTFGKNAMGWSRQAPGNERELVAGITSGGSTYYADSVKGRFTISRDNAKNTVYLQMNSLKPEDTAVYYCAAVRRWKYDWGQGTQVTVSS | high polyreactivity
18 | QVQLVESGGGLVQAGGSLRLSCAASGFTLPLYAMGWYRQAPGKERELVAAISSGGGRTYYADSVKGRFTISRDNAKNTVYLQMNSLKPEDTAVYYCNVDRWWLGWYKFNYWGQGTQVTVSS | high polyreactivity
19 | QVQLVESGGGLVQAGGTLRLSCAASGSTFAANAMGWYRQAPGKERELVAAITSSGGSTYYADSVKGRFTISRDNAKNTVYLQMNSLKPEDTAVYYCNTDIERYVRIYDSWGQGTQVTVSS | low polyreactivity
20 | QLQLVESGGGLVQAGGSLRLSCAASGSTFNYNAMGWYRQAPGKEREFVAAISRSGGSTSYADSVKGRFTISRDNAKNTVYLQMNSLKPEDTAVYYCAAYYRKTGYDYWGQGTQVTVSS | high polyreactivity
21 | QVQLVESGGGLVQAGGSLRLSCAASGFTFYPYAMGWYRQAPGTERELVAAIRGSGGSTHYADSVKGRFTISRDNAKNTVYLQMNSLKPEDTAVYYCAARIRGYRQYEYYYWGQGTQVTVSS | high polyreactivity
22 | QVQLVESAGGLVQAGGSLRLSCAASGFTFTKYAMGWYRQAPRKESELVAAISSSGYSTYYADSVKGRFTISRDNAKNTVYLQMNSLKPEDSAVYYCAARGYYSSGVDYWGQGTQVTVSS | high polyreactivity

Row | Sequence | polyreactivity (PSR sort gate)
23 | QVQLVESGGGLVQAGGSLRLSCAASGSIFLSNMGWYREAPGKQRELVAAITIGGSTDYADSVKGRFTISRDNAKNTVFLQMNSLKPEDTAVYYCNADNPYSDGADSLGNYWGHGTQVTVSS | low polyreactivity
24 | QVQLVESGGGLVQAGGSLRLSCASSGFTFTLYARGWYRQAPGKEWELVAAINRSGGRTYYADSVKGRFTISRDNAKNTVYLQMNSLKPEDTAVYYCNKYPWPNYYDGEYDYWGQGTQVTVSS | high polyreactivity
25 | QVQLVESGGGLVQAGGSLRISCAASGIIFYRNAMGWYRQAPGKERELVAVITASGGNTYYADSVKGRFTISRDNAKNTVYLQMNSLKPEDTAVYYCNRELTSPRRWHVSRAYDYWGQGTQVTVSS | low polyreactivity
26 | QVQLVESGGGIVQAGGSLRLSCAASGNIFDDNAMGWYRQAPGKDRELVAAITSRGTRTYYADSVKGRFTISRDNAKNTVYLQMNSLKPEDTAVYYCAAGSYYWGQGSQVTVSS | high polyreactivity
27 | QVQLVESGGGLVQAGGSLRLSCAASGIIFIGNAMGWYRQAPGKERELVAAISWNGVRTYYADSVKGRFTISRDNAKNTVYLQMNSLKPEYTAVYYCAAVTRRGIKLDYWGQGTQVTVSS | high polyreactivity
28 | QVQLVESGGGLVQAGGSLRLSCAASGSTFVNNAMGWYRQAPGKERELVAAIRSSGGSTYYADSVKGRFTISRDNAKNTVSLQMNSLKPEDTAVYYCNADRWKYELDYWGQGTQVTVSS | high polyreactivity
29 | QVQLVESGGGLVQAVGSLRLICDASGSTFYKYSMGWYRQAPGKERELVAAITTSGTGTYYADSVKGRFTISRDNAKNTVYLEMNSLKPEDTGVYYCNARIVYRVGVSRMYYWGQGTQVTVSS | high polyreactivity
30 | QVQLVESGGGLVQAGGSLRLSCAASGRTFRVYAMGWYRQAPGKERELVAAINGGGSTNYADSVKGRFTISRDNAKNTVYLQMNSLKPEDTAVYYCIATGRRSKRIYDYWGQGTQVTVSS | high polyreactivity
31 | QVQLVESGGGLVQAGGSLRLSCAASGSTFRQYAMGWYRQAPGKERELVAGISYRGGRTYYADSVKGRFTISRDNAKNTVYLQMNSLKPEDTAVYYCNALRHYRDISVDGDDYWGQGTQVTVSS | high polyreactivity
32 | QVQLVESGGGLVQAGGSIRLSCAASGRIFKGYAMGSYRQAPGKERELVAAISSRGGITYYADSVKGRFTISRDNAKNSVYLEMNSLNPEDTAVYYCAAVYKWSRYGGYKYWGQGTQVTVSS | low polyreactivity
33 | QVQLVESGGGLVQAGGSLRLSCAASGITFPGYAMGWYRQAPGKEWELVAAISTSGGSTYYADSVKGRFTISRDNAKNTVYLQMNSLKPEATAVYYCNARLVSYSYEEMDYWGQGTQVTVSS | low polyreactivity
34 | QVQLVESGGGLVQAGGSLRLSCAASGSTFAYNAKGWYRQAPGKERELTNYADSVKGRFTISRDNAKNTVYLQMNSLKPEDNAVYYCIAQIDFGVPDKRAWGYDYWGQGTQVTVSS | low polyreactivity
35 | QEQLQESGSGLVQAGGSLRLSCAASGNIFQDWVMGWYRQAPGKERELVAAISPGAITYYADSVKGRFTISRDNAKYTVYLQTNSLKPEDTAVYYCAAYYIVEYLHGYWGQGTRVTVSS | low polyreactivity
36 | QVQLVESGGGLVKAGGSLRLSCAASGSIIGFYAMGWYILAPGKERELVAAITRGGGSTFYADSVKGRFTFSRDNAKNTVYLQMNSLKPEDTAVYYCAATVYRYHGPGYYYWGQGTQVTVSS | high polyreactivity
37 | QVQLVESGGGLVQAGGSLRLSCAASGSIFEFYAMGWYRQAPGKERELVAAITSDGGSTYYADSVKGRFTISRDNAKNTVYLQMNSLKPEDTAVYYCAKDPYALPAQINDYWGQGTQVTVSS | high polyreactivity
38 | QVQLVESGGGLVQAGGSLRLSCAASGSTFGYYAMGWYRQAPGKERELVAVIRRGGSTNYADSVKGRFTISRDNAKNTVYLQMNSLKPEDTAVYYCNKYRYAGITAEFYYWGQGTQVTVSS | high polyreactivity
39 | QVQLGESGGGLVQAGGSLRLSCAPSGNPFTIYAMGWYRPAPGKERELVASSTGRGGSTYYADSVKGRFTISRDNEKNTVYLQMNSLKPEDTAVDYCNADYNSYLYRPPTTRDYWGQGTQVTVSS | low polyreactivity
40 | QVQLVESGGGLVQAGGSLRLSCAASGGTFSYYAMGWYRQAPGKERELVAAISKRGGSTYYADSVKGRFTISRDNAKNTVYLQMNSLKPEETAVYYCARGYSWSVGYPRVQDMDYWGQGTQVTVSS | high polyreactivity
41 | QVKLVESGGGLVQAGVSLRLSCAASGRIFVFYAMGWYRQAPGKERELVAAITASSTRTYYADSVKGRFTISRAHAKNTVYLQMNSLKPEDTAVYYCARDIRQYILYGRGDYWGQGTQVTVSS | low polyreactivity
42 | QVQLQESGGGLVQADGSLRLSCAASGSIFGYYYMGWYRQAPGKDRDLVATINICGITNYADSVNGRFTISRDNAKYTVYLQMNSLKPDDTAVYYCAADEFDQRDLGYWGQGTQVSVSS | low polyreactivity
43 | QVQLVESGGGLVQAGGSLRLSCAASGSIFGVNAMGWYRQAPGKERELVASITGGDSTNYADSEKGRFTISRDNAKNTVYLQMNSLKPEDTAVYYCAKDHYYRYEEGDYWGQGTQVTVSS | low polyreactivity

Source: the nanobody polyreactivity screen of Harvey et al. (2022)
